This note sets out measurements from the supplement of paper PMC9170038.

The test system of the series is MS2 coat protein. Nature of the series: apparent KD of MS2 coat protein; designed switch direction (-1 OFF switch, 1 ON switch): -1; higher = weaker reporter binding. The procedure, abridged: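 The buffer was Tris-HCl pH 7.5 with KCl, MgCl2, BSA, DTT, tRNA and Tween-20. In it, SNAP-549-labelled MS2 coat protein was titrated in doubling steps from 0.7 or 1.5 nM to 3 µM over chip-bound RNA switches transcribed by stalled E. coli RNA polymerase on Illumina chips. Apparent KD is the per-design median over clusters of curve fits to normalised fluorescence.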

Where [1] appears, read: input ligand: microRNA oligo, concentration not stated.
[2] abbreviates: Eterna round: R95, input ligand: FMN 200 uM.
Setting [3] is: Eterna round: R95, input ligand: microRNA oligo, concentration not stated.
Where [4] appears, read: Eterna round: R95, input ligand: none.

With “UUAAAUCAUGUAGGAUAUGCGUGGCGAAGCUAUGCAGAAGGACAUGAGGAUCACCCAUGUUCUAGCGUCUGAGUACAGAUGCAA [Mat - Exclusion NG 1 - Mod of JL - D2] (Eterna round: R96, puzzle: Exclusion NG 1)”, the “apparent KD of MS2 coat protein” value worked out at 244 nM (input ligand: FMN 200 uM), 17.4 nM under setting [1] and 18.9 nM (input ligand: none).

For the sequence “UUAAAUCAUGUAGGAUAUGCGUGGCGAAGCUAUGCAGAAGGACAUGAGGAUCACCCAUGUUCUAGCGUCUGCGUACAGAUGCGG [JL JSci mod] (Eterna round: R96, puzzle: Exclusion NG 1)”, the “apparent KD of MS2 coat protein” value runs as follows: (input ligand: FMN 200 uM) 334 nM; under setting [1], 22 nM; (input ligand: none) 29.8 nM.

In the case of “UUAAAUCAUGUAGGAUAUGCUUUGCGAAGCGAGGCAGAAGGACAUGAGGAUCACCCAUGUGCUAGCGUCCGCGUACGGAUGCAA [Mat - Exclusion NG 1 - Mod of JL - D61] (Eterna round: R96, puzzle: Exclusion NG 1)”, the “apparent KD of MS2 coat protein” value is, setting by setting: (input ligand: FMN 200 uM) 166 nM; under setting [1], 57.3 nM; (input ligand: none) 83 nM.

For the sequence “UUAACAUGCUGGUGAUCAUACAUGAGGAUCACCCAUGUAACAAGCUUUUUGUUCGUCUUAAUUUAAUUGAUUACUAG [Stov1/8-B1] (Eterna round: R97, puzzle: Sensor, turn-off variant 1)”, the “apparent KD of MS2 coat protein” value worked out at 188 nM (input ligand: FMN 200 uM) and 248 nM (input ligand: none).

As for “UUAACAUUCGUCAGGAUAUUUGCUCGGUGUACGAGAGAGAAGGGACAUGAGGAUCACCCAUGUGACUUCAGCAA [Eternabot (Original) Solution 2] (Eterna round: R97, puzzle: Brourd's mod of Exclusion 4)”, the “apparent KD of MS2 coat protein” value (input ligand: FMN 200 uM) came to 19.6 nM and the “apparent KD of MS2 coat protein” value (input ligand: none) amounted to 15.1 nM.

Regarding “UUAAGGGACUGAGGAUAUACAUGAAUUAUGUUUGUAGAAGGCAGAUUGUUAGUUUAUUCACUAUACAUGAGGAUCACCCAUGUU [JR_ExcNG1_Sub019] (Eterna round: R96, puzzle: Exclusion NG 1)”, the “apparent KD of MS2 coat protein” value under setting [1] was determined as 17.1 nM.

With “UUAAUUAAUUAACGCAGCAAGAUCACAUGAGGAUCACCCAUGUAGGAUAUCAGCUCGAUUAGAGCUGAGAAGGACAUAGCUGCG [ExNG3/1-A1] (Eterna round: R96, puzzle: Exclusion NG 3)”, the “apparent KD of MS2 coat protein” value runs as follows: (input ligand: FMN 200 uM) 103 nM; under setting [1], 18.2 nM; (input ligand: none) 17.5 nM.

For “UUACCCUGAGGAUAUCCACCGUGAUACAUGAGGAUCACCCAUGUUAAUGCCUGAGUUCCCGGAGAAGGCAGAUUCC [Megrez] (Eterna round: R97, puzzle: Exclusion 5)”, the “apparent KD of MS2 coat protein” value (input ligand: FMN 200 uM) is 35.3 nM and the “apparent KD of MS2 coat protein” value (input ligand: none) was determined as 33.4 nM.

In the case of “UUACGAUUGCUAGGAUAUCCACGAAUAGCUCCGGGAGAAGGAGCUCUCGUACAUGAGGAUCACCCAUGUCAGGGUGUCCAAUUU [Onraedin] (Eterna round: R96, puzzle: Exclusion NG 1)”, the “apparent KD of MS2 coat protein” value (input ligand: FMN 200 uM) was 38.1 nM, the “apparent KD of MS2 coat protein” value under setting [1] turned out to be 21.4 nM and the “apparent KD of MS2 coat protein” value (input ligand: none) came to 40.7 nM.

Consider “UUACUACAUGUAGGAUAUGCGUGGCGAAGCUAUGCAGAAGGACAUGAGGAUCACCCAUGUUUUAGCGUCUGCGUACAGAUGCGU [JL ENG1 1.47] (Eterna round: R96, puzzle: Exclusion NG 1)”, for which the “apparent KD of MS2 coat protein” value under setting [1] came out at 14.8 nM.

Take “UUAGAUUAUUGAGGAUAUGGUUAUUUUUAUUAACCAGAAGGCAAACUCAACAUGAGGAUCACCCAUGUAUAAAGGGUAUUAGUU [JR_ExcNG1_Sub097] (Eterna round: R96, puzzle: Exclusion NG 1)”: the “apparent KD of MS2 coat protein” value under setting [1] was found to be 71.9 nM.

Take “UUAGAUUGAGGAUAUACAUGAGGAUCACCCAUGUCGAUACCAAUGGUGUUGACCGUCAGUAGAAGGCGAAUUGA [Eternabot (L1) Solution 87] (Eterna round: R97, puzzle: Exclusion 3)”: the “apparent KD of MS2 coat protein” value runs as follows: (input ligand: FMN 200 uM) 163 nM; (input ligand: none) 123 nM.

Consider “UUAUACAAGCAAAGAUCCCACAUGAGGAUCACCCAUGUGCUCGUCUUAUAAGGAUCUGUGACGAAAGUCACGGAUCC [Mat - Sensor, turn-off var - Eli Mod - D101] (Eterna round: R97, puzzle: Sensor, turn-off variant 1)”, for which the “apparent KD of MS2 coat protein” value is, setting by setting: (input ligand: FMN 200 uM) 43.3 nM; (input ligand: none) 35.7 nM.

On to “UUAUACGUUGAGGAUAUGCGAUUUAGUAUAGUUGCAGAAGGCGAUACAUGAGGAUCACCCAUGUUUAUGGGCAU [LRO-Ex6-07] (puzzle: Exclusion 6)”, for which the “apparent KD of MS2 coat protein” value turned out to be 394 nM under setting [2], 269 nM under setting [3] and 259 nM under setting [4].

In the case of “UUAUACGUUGAGGAUAUGUCAGUUAGUAUAUUUACAGAAGGCGAUACAUGAGGAUCACCCAUGUUUAUGGGCAU [Ex-6 Malc#3] (puzzle: Exclusion 6)”, the “apparent KD of MS2 coat protein” value under setting [3] came to 127 nM.

As for “UUAUAGUGAGGAUAUAUAUGCAGUAAACCUUUAAAUUUAUAACUUGAGGAUCACCCAAGUAGAAGGCGCGUUAU [JR_Ex2_Sub054] (Eterna round: R97, puzzle: Exclusion 2)”, the “apparent KD of MS2 coat protein” value worked out at 15.3 nM (input ligand: FMN 200 uM) and 16.9 nM (input ligand: none).

For “UUAUAUAGUGUGAGGAUAUGCUGGUCCUUGGAUCAGCAGAAGGCACAUGAGGAUCACCCAUGUAGUUAAUAAUA [Mat - Exclusion 4 - JL Mod - D16] (puzzle: Brourd's mod of Exclusion 4)”, the “apparent KD of MS2 coat protein” value runs as follows: under setting [2], 131 nM; under setting [3], 30 nM; under setting [4], 42.8 nM.

In the case of “UUAUAUAGUGUGAGGAUAUGCUGGUCCUUGGAUCAGCAGAAGGCACAUGAGGAUCACCCAUGUAGUUUAUUUUA [JL bmx4 3.01] (puzzle: Brourd's mod of Exclusion 4)”, the “apparent KD of MS2 coat protein” value under setting [3] was found to be 26.8 nM.

“UUAUCCGCUGAGGAUAUUAUCAGUGAGAGCUGAUGAGAAGGCGGUACAUGAGGAUCACCCAUGUCUAUGGGCAG [Ex-6 Malc#24] (puzzle: Exclusion 6)”: the “apparent KD of MS2 coat protein” value was found to be 472 nM under setting [2], 337 nM under setting [3] and 435 nM under setting [4].

Regarding “UUAUGACAUGAGGAUCACCCAUGUAAGGAUAUCGAAGGAGAUGGUUACGAGGCCGCUACGAGAAGGUACGCGGG [Eternabot (L2) Solution 23] (Eterna round: R97, puzzle: Exclusion 1)”, the “apparent KD of MS2 coat protein” value was determined as 161 nM (input ligand: FMN 200 uM) and 109 nM (input ligand: none).

For the sequence “UUAUUAUAUGUAGGAUAUGCAUAUUGUUGUUAUGCAGAAGGACAUGAGGAUCACCCAUGUAUAUUGUUGUUAUAUAUUAUAUAU [Title] (Eterna round: R96, puzzle: Exclusion NG 1)”, the “apparent KD of MS2 coat protein” value reads like this: (input ligand: FMN 200 uM) 27.1 nM; under setting [1], 18.6 nM; (input ligand: none) 22.3 nM.

Regarding “UUCACAUGGACAUAAGAUCACAUGAGGAUCACCCAUGUGAAUAACAAGCUUUUUGCUCGUCUUAUGUCCAAUAAUAA [Stov1/14-A1] (Eterna round: R97, puzzle: Sensor, turn-off variant 1)”, the “apparent KD of MS2 coat protein” value runs as follows: (input ligand: FMN 200 uM) 14.1 nM; (input ligand: none) 12.2 nM.

Regarding “UUCACAUGGACAUGAGAUCACAUGAGGAUCACCCAUGUGAAUAACAAGCUUUUUGUUCGUCUUAUGUCCAAUAAUAG [Stov1/14-D3] (Eterna round: R97, puzzle: Sensor, turn-off variant 1)”, the “apparent KD of MS2 coat protein” value reads like this: (input ligand: FMN 200 uM) 14 nM; (input ligand: none) 14.1 nM.

Regarding “UUCAGACAUGAGGAUCACCCAUGUGAGGAUAUGAUGCGAUCGUCGAAAGACGAUAGCAUCAGAAGGCACAUAUG [Fiskers Ex 1 - 17] (puzzle: Exclusion 1)”, under setting [3], the “apparent KD of MS2 coat protein” value was determined as 153 nM.

For “UUCAUGUGAGGAUAUGUGCAAGACCUAGAGAUUGGGUUUUCACAGAAGGCACAUGAGGAUCACCCAUGUGUUAC [Eternabot (L2) Solution 23] (Eterna round: R97, puzzle: Exclusion 4)”, the “apparent KD of MS2 coat protein” value was 232 nM (input ligand: FMN 200 uM) and 126 nM (input ligand: none).

For the sequence “UUCCAACAUGAGGAUCACCCAUGUCAGGAUAUGCGACCUCCACCACCAACCUCACCUCGCAGAAGGGACACACC [Mod-Cyanosaur/default-title] (Eterna round: R97, puzzle: Exclusion 1)”, the “apparent KD of MS2 coat protein” value (input ligand: FMN 200 uM) worked out at 24.2 nM and the “apparent KD of MS2 coat protein” value (input ligand: none) turned out to be 23.7 nM.

Take “UUCCGACAUGAGGAUCACCCAUGUGAGGAUAUGUUCGAAAGCUAAGACUGCGACAGGAAUAGAAGGCGCGGGUA [Eternabot (Original) Solution 17] (Eterna round: R97, puzzle: Exclusion 1)”: the “apparent KD of MS2 coat protein” value stood at 20.4 nM (input ligand: FMN 200 uM) and 20.4 nM (input ligand: none).

Turning to “UUCCUCACUUCUUUGUCUCACAUGAGGAUCACCCAUGUAAUAUAGGAUAUGCAUAGUAUUUCUAUGCAGAAGGAUAUUAGUUUU [JR_ExcNG3_Sub087] (Eterna round: R96, puzzle: Exclusion NG 3)”, the “apparent KD of MS2 coat protein” value is, setting by setting: (input ligand: FMN 200 uM) 131 nM; under setting [1], 27.3 nM; (input ligand: none) 34.7 nM.

Take “UUCCUCUCUUCUCUGUCUCACAUGAGGAUCACCCAUGUAACAUAGGAUAUGCUUGGUAUUUAAAUGCAGAAGGAUGUUAGUAUU [JR_ExcNG3_Sub082] (Eterna round: R96, puzzle: Exclusion NG 3)”: the “apparent KD of MS2 coat protein” value by setting is: (input ligand: FMN 200 uM) 82.9 nM; under setting [1], 22.4 nM; (input ligand: none) 30.2 nM.

Take “UUCGUGCAGCUUUGCUGUACGAGUACAUGAGGAUCACCCAUGUAGGAUAUGGUACGCUUUGCGUGCUAGAAGGAUAUGUGUAGG [JL EXNG3 1.37] (Eterna round: R96, puzzle: Exclusion NG 3)”: the “apparent KD of MS2 coat protein” value runs as follows: (input ligand: FMN 200 uM) 55.5 nM; under setting [1], 27.5 nM; (input ligand: none) 43.9 nM.
